According to paper PMC11260479, “YY1 is involved in homologous recombination inhibition at guanine quadruplex sites in human cells”:

Molecular target: RAD51 (UniProt Q06609 1-339)
Assay: EMSA; 2 mM ATP, 5 mM CaCl2; EMSA, 10 nM DNA. RAD51: 20 mM Tris-HCl pH 8.0, 30 mM NaCl, 1 mM DTT, 2 mM ATP, 5 mM CaCl2, 0.2% Tween 20, 37 C 15 min. BG4: 20 mM Tris-HCl pH 8.0, 30 mM KCl, 1
Conditions: protein: commercial; chain copies: 10; label: none (SYBR Gold stain); single strand

RAD51, sequence (Q06609 whole entry): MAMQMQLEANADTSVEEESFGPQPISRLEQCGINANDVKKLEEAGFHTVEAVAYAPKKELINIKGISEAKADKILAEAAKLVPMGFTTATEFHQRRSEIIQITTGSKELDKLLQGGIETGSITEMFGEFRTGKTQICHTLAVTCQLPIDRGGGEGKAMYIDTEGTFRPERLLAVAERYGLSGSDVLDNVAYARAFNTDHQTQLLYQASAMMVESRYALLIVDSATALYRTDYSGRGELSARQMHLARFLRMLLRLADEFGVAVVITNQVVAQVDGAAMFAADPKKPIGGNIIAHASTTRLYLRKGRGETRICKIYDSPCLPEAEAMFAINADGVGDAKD

B1: ss-DNA (ssDNA)
DNA: ATGGTGTGTGTAGGTTAATGTGAGGAGGAGAGGTGAAGAAGGAGGAGAGAAGAAGGAGGC
binding result: binds
